Experiment [1] concerns the target T1, recombinant human CD70 (Flag-TNC-CD70) (human, UniProt P32970 39-193).
T1 construct: extracellular domain; also called recombinant CD70; human Flag-TNC-CD70; not shown: Flag tag and TNC trimerisation domain
T1 sequence (looked up): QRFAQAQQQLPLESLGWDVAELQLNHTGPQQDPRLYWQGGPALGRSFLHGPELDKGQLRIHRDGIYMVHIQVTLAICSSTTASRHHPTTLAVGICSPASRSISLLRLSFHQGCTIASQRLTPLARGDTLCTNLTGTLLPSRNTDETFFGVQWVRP
The experiment is described as follows: blocking ELISA of Example 19: CD27 Fc chimera on anti-Flag-captured Flag-TNC-CD70.

The target in experiment [2] is T1, recombinant human CD70 (Flag-TNC-CD70). The experiment is described as follows: CD27-CD70 inhibition ELISA, human Flag-TNC-CD70. A general note: ELISA stands for enzyme-linked immunosorbent assay.
Experiment [3] has as its target T2, rhesus recombinant CD70 (FLAG-TNC-rhesus CD70) (rhesus macaque (Macaca mulatta), UniProt F7GPA5 174-316).
T2 construct: also called rhesus Flag-TNC-CD70; Rhesus monkey; not shown: Flag tag and TNC trimerisation domain
T2 sequence: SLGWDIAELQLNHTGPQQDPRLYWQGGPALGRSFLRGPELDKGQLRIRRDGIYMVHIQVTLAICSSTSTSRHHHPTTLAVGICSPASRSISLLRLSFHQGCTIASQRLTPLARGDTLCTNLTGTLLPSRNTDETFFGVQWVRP
The experiment is described as follows: Biacore, Fab over immobilised rhesus CD70. On the technique in general: Surface plasmon resonance follows binding to a sensor surface in real time, without labels.

Experiment [4] deals with T3, human CD70 on the surface of cells (human, UniProt P32970 1-193).
T3 sequence (looked up): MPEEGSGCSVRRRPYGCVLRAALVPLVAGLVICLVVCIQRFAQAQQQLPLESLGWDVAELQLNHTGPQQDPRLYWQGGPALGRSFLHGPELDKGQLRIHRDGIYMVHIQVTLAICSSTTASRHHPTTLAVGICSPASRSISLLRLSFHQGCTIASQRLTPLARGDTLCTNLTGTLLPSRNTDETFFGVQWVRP
Briefly: cell-based or functional assay.

Experiment [5] has as its target T1, recombinant human CD70 (Flag-TNC-CD70). Briefly: inhibition ELISA: CD27-Fc binding to anti-Flag-captured Flag-TNC-CD70. How it is done:
From selected phage transfected into TG1, individual colonies were picked randomly for growth in 96 well plates. After IPTG induction according to standard protocols periplasmic fractions (peris) containing Fabs were prepared. […] In this assay, Flag-TNC-CD70 is captured by an anti-Flag mAb and binding of CD27-Fc is detected via a biotinylated anti-CD27 mAb and strep-HRP in the absence or presence of CD70 Fabs (FIGS. 2 and 3) or CD70 mAbs (FIG. 4). In FIG. 2B it can be seen that 27B3, which has an identical VH as 9D1, but contains a somewhat different light chain, seems to block binding of CD27 to CD70 more efficiently, which was in line with the better off rate of this Fab as measured on Biacore (data not shown). Table 3 indicates the blocking potency (expressed as IC50) for the various llama-human chimeric mAbs tested in the CD70 inhibition ELISA. […] FIG. 3 is a composite of an experiment testing llama CD70 Fabs for blocking activity (in the inhibition ELISA, see white bars) and for CD70 binding (binding ELISA, black bars). For the binding ELISA, Flag-TNC-CD70 is captured by an anti-Flag mAb and binding of the Fabs is detected using an anti-myc-HRP mAb, which recognizes the MYC tag fused to the C-terminus of the Fd fragment. […]

Changes are numbered by the printed parent chain.

For orientation: IC50 means the concentration at which inhibition is half-maximal. With MDX1411 mAb (antibody), the IC50 stood at 5.5 µg/mL in experiment [1] and 0.044 µg/mL in experiment [2].

B1: 5F4 Fab (Fab, V domains shown)
VH: EVQVQESGGGLVHPGGSLKLSCAASGFTFDTYAMSWVRQAPGKGLEWVSAISWSGGETFYAESMKGRFTISRNNAKNTLYLQMNSLKSEDTAVYYCARGMGLAEGLTDWGQGTQVTVSS
VL: QAVVTHPPSLSASPGSSVRLTCTLISGDNIGGYDISWYQQKTGSPPRYLLYYYSDSYKHQSSGVPSRFSGSKDASANAGLLLISGLQSEDEADYYCSAYKSGSYKAPVFGGGTHLTVLG
notes: Llama-derived Fab from phage display; MYC tag at C-terminus of Fd
One may read the koff as a measure of how fast the partners let go of each other. For the molecule B1, the koff in experiment [3] was found to be 0.0005 s⁻¹.

B2: 57B6 Fab (Fab, V domains shown)
VH: QLQLVESGGGLVQPGGSLRLSCAASGFSFSHYAMSWVRQAPGKGLEWVSGDNTYDGGTRYQDSVKGRFTISRDNGKNTLYLQMNSLKPEDTAVYYCAKDTGRGIMGEYGMDYWGKGTLVTVSS
VL: QTVVTQEPSLSVSPGGTVTLTCGLKSGSVTSSNYPAWYQQTPGQAPRLLIYNTNSRHSGVPSRFSGSISGNKAALTITGAQPEDEADYYCALYMGSGSANAMFGGGTHLTVLG
notes: as for B1
For B2, in experiment [3], the off-rate constant (koff) was 4e-05 s⁻¹.

B3: 1C2 Fab (Fab, V domains shown)
VH: ELQVVESGGGLVQPGGSLRLSCAASGFTLSNYWMHWVRQAPRKGLEWVSTISTDNSRTYYADSVKGRFTISRDHAKNTLILQMNSLKSEDTAVYYCIRGSDYEHWGQGTQVTVSS
VL: QTVVTQEPSLSVSPGGTVTLTCGLSSGSVTTTNYPGWFQQTPGQAPRTLIYSTSSRHSGVPSRFSGSISGNKAALTITGAQPEDEADYYCALEEIGSYTYMFGGGTHLTVLG
notes: as for B1
Turning to B3, the koff in experiment [3] amounted to 0.00032 s⁻¹.

B4: 9E1 Fab (Fab, V domains shown)
VH: EVQLQESGGGVVQPGGSLRLSCAASGFTFDDYAMSWVRQAPGKGLEWVSSIYMYDSSTYYADSVKGRFTISTDNAKNTVYLQMNSLKSEDTAVYYCAKDINRSYGSSWSHFGPIFSSWGQGTQVTVSS
VL: QAVVTQEPSLSVSPGGTVTLTCGLTSGSVTSSNYPDWYQQTPGQAPRLLIYNTNSRHSGVPSRFSGSISGNKAALTITGAQPEDEADYYCNLYMGSGGSKVFGGGTKLTVLG
notes: as for B1
For the molecule B4, the koff in experiment [3] came out at 0.0002 s⁻¹.

B5: 53A2 mAb (human IgG1, HEK293) (antibody, V domains shown)
VH: EVQLVESGGGLVQPGGSLRLSCAASGFTFSVYYMNWVRQAPGKGLEWVSDINNEGGTTYYADSVKGRFTISRDNSKNSLYLQMNSLRAEDTAVYYCARDAGYSNHVPIFDSWGQGTLVTVSS
VL: QAVVTQEPSFSVSPGGTVTLTCGLKSGSVTSDNFPTWYQQTPGQAPRLLIYNTNTRHSGVPDRFSGSILGNKAALTITGAQADDEAEYFCALFISNPSVEFGGGTQLTVLG
For B5, the “Raji co-culture assay IC50 relative to 27B3” value in experiment [4] was 0.8 fold relative to 27B3.

B6: 35G2 mAb (human IgG1, HEK293) (antibody, V domains shown)
VH: B5 VH with S75A, S78T, R87K, A88P
VL: B5 VL with A2T, D32T, T55S, E87D
Turning to B6, the “Raji co-culture assay IC50 relative to 27B3” value in experiment [4] was 1.4 fold relative to 27B3.

B7: 9D1 Fab (Fab, V domains shown)
VH: B5 VH with S75A, S78T, Y80T, R87K, A88P, V93L, A97V, L117Q, T119I, S121A
VL: QAVVTQEPSLSVSPGGTVTLTCGLSSGSVTSSHYPGWYQQTPGQAPRLLIFNTNSRHSGVPSRFSGSISGNKAALTITGAQPEDEADYYCALLNIDDGSTMFGGGTHLTVLG
notes: as for B1
For the molecule B7, the koff in experiment [3] stood at 0.0002 s⁻¹.

B8: 53H1 mAb (human IgG1, HEK293) (antibody, V domains shown)
VH: B5 VH
VL: B5 VL with A2T
Take B8: the “Raji co-culture assay IC50 relative to 27B3” value in experiment [4] is 1.6 fold relative to 27B3.

B9: 40F1 mAb (human IgG1, HEK293) (antibody, V domains shown)
VH: B5 VH with T57A, L117Q
VL: B5 VL
In the case of B9, the “Raji co-culture assay IC50 relative to 27B3” value in experiment [4] was 1.8 fold relative to 27B3.

B10: 41D12 mAb (human IgG1, HEK293) (antibody, V domains shown)
VH: B5 VH
VL: B5 VL with F10L, S11T
Consider B10, for which the “Raji co-culture assay IC50 relative to 27B3” value in experiment [4] is 1.2 fold relative to 27B3.

B11: 9D1 chimeric llama-human mAb (antibody, V domains shown)
VH: B5 VH with S75A, S78T, Y80T, R87K, A88P, V93L, A97V, L117Q, T119I, S121A
VL: B7 VL
notes: also called mAb 9D1
Regarding B11, the “fold less potent than 27B3 mAb” value in experiment [5] is 3 fold.

B12: 4D2 Fab (Fab, V domains shown)
VH: QVQLQESGPGLVKPSQTLSLACTVSGGSITTSYYYWSWIRQPPGKGLEWMGAIGSRGSTYYSPSLKTRTSISRDTSKNQFTLQLSSVTPEDTAVYYCARVTGEITYNSGSYYYTLNLFDYWGQGTQVTVSS
VL: QSVLTQPPSLSASPGSSVRLTCTLSSGNSVGNYDISWYQQKAGSPPRYLLYYYSDSYKNQGSGVPSRFSGSKDPSANAGLLLISGLQAEDEADYYCSVSNSGTYKPVFGGGSKLTVLG
notes: as for B1
For B12, the koff in experiment [3] was 0.00029 s⁻¹.

B13: 9G2 Fab (Fab, V domains shown)
VH: QVQLVESGGGLMQPGGSLRLSCAASGFTFSSSAMSWVRQAPGKGLEWVSSIYSDSSYTYYADSVKSRFTISTDNAKNTLYLQMNSLKPDDTAVYYCAGSSDYEGSFASWGQGTQVTVSS
VL: QSVVTQPPSLSASPGSSVRLTCTLSSGNSVGNYDISWYQQKAGSPPRYLLYYYSDSVKHQGSGVPSRFSGSSDASANAGLLLISGLQPEDEADYYCSAYKSGSHVFGGGTKLTVLG
notes: as for B1
As to B13, the koff in experiment [3] is 0.00018 s⁻¹.

B14: 9B2 Fab (Fab, V domains shown)
VH: B13 VH with V2L, L4V, S31G, D54H, S56M, G98A, S105L, A107V
VL: B13 VL with S2A, V4L, S25N, G27A, N32S, V57L, K58S, S72T, K100N, S101R
notes: as for B1
Turning to B14, the koff in experiment [3] was 0.00061 s⁻¹.

The values are drawn from patent publication US20230265201A1 (published 2023).
